These results are taken from the supplement of paper PMC12783771.

B1: library; numbered along this chain (parent)
chain: MNIQIGELAKRTACPVVTIRFYEQEGLLPPPGRSRGNFRLYGEEHVERLQFIRHCRSLDMPLSDVRTLLSYRKRPDQDCGEVNMLLDEHIRQVESRIGALLELKHHLVELREACSGARPAQSCGILQGLSDCVCDTRGTTAHPSD

Data set [1] covers variants of B1. Briefly: sfGFP reporter fluorescence (15 h) (µM FITC); higher = higher leak. The conditions noted are these: library round: Round 0; ligand: none. The method in brief: (§1)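 Values are endpoint sfGFP fluorescence given as µM FITC equivalents. Fluorescence was read at 485/528 nm on a Synergy Neo2, and FITC standard curves were prepared in 50 mM sodium borate pH 8.5. Reactions of 1 μL combined BL21 Star (DE3) PANOx-SP extract, pPbrR-sfGFP reporter, 30 μg/mL GamS and linear PbrR templates (PCR-made, Echo-normalized to 5 nM), with 1 µM lead chloride, 30 µM zinc acetate or no metal, for 15 hr at 30 °C.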

Variants of B1 are the subject of data set [2]. Briefly: sfGFP reporter fluorescence (15 h) (µM FITC); higher = stronger transcriptional activation. The following applies: library round: Round 0. A digest of the protocol: as §1

± gives the standard deviation of the averaged measurements.

MNIQIGELAKRTACPVVTIRFYEQEGLLPPPGRSRGNFRLYGEEHVERLQFIRHCRSLDMPLSDVRTLLSYRKRPDQDCGEVNMLADEHIRQVESRIGALLELKHHLVELREACSGARPAQSCGILQGLSDCVCDTRGTTAHPSD [L86A]: the sfGFP reporter fluorescence amounted to 0.07 ± 0.0015 in data set [1], 0.0647 ± 0.0018 in data set [2] (ligand: 1 µM Pb) and 0.0782 ± 0.0018 in data set [2] (ligand: 30 µM Zn).
For MNIQIGELAKRTACPVVTIRFYEQEGLLPPPGRSRGNFRLYGEEHVERLQFIRHCRSLDMPLSDVRTLLSYRKRPDQDCGEVNMLLDEHIRQVASRIGALLELKHHLVELREACSGARPAQSCGILQGLSDCVCDTRGTTAHPSD [E94A], the sfGFP reporter fluorescence in data set [1] was 0.0738 ± 0.0044; in data set [2] (ligand: 1 µM Pb), 0.0867 ± 0.0065; in data set [2] (ligand: 30 µM Zn) it was 0.333 ± 0.015.
For the variant MNIQIGELAKRTACPVVTIRFYEQEGLLPPPGRSRGNFRLYGEEHVERLQFIRHCRSLDMPLSDVRTLLSYRKRPDQDCGEVNMLLDEHIRQVESRIGALLELKHHIVELREACSGARPAQSCGILQGLSDCVCDTRGTTAHPSD [L107I], the sfGFP reporter fluorescence in data set [1] was found to be 0.0579 ± 0.001; in data set [2] (ligand: 1 µM Pb) it was 0.0671 ± 0.0036; in data set [2] (ligand: 30 µM Zn) it was 0.808 ± 0.065.
MNIQIGELAKRTACPVVTIRFYEQEGLLPPPGRSRGNFRLYGEEHVERLQFIRHHRSLDMPLSDVRTLLSYRKRPDQDCGEVNMLLDEHIRQVESRIGALLELKHHLVELREACSGARPAQSCGILQGLSDCVCDTRGTTAHPSD [C55H]: the sfGFP reporter fluorescence worked out at 0.0585 ± 0.00078 in data set [1], 0.06139 ± 0.00026 in data set [2] (ligand: 1 µM Pb) and 0.0574 ± 0.00078 in data set [2] (ligand: 30 µM Zn).
Taken in the same sequence, the figures for MNIQIGELAKRTACPVVTIRFYEQEGLLPPPGRSRGNFRLYGEEHMERLQFIRHCRSLDMPLSDVRTLLSYRKRPDQDCGEVNMLLDEHIRQVESRIGALLELKHHLVELREACSGARPAQSCGILQGLSDCVCDTRGTTAHPSD [V46M] were 0.0563 ± 0.0018, 0.09 ± 0.0075 and 1 ± 0.1.
As for MNIQIGELAKRTACPVVTIRFYEQEGLLPPPGRSRGNFRLYGEEHVERLQFIRHCRSLDMPLSDVRTLLSYRKRPDQDCGEVNMLLDEHIRQVESRIGALLELVHHCVELREACSGARPAQSCGILQGLSDCVCDTRGTTAHPSD [K104V L107C], the sfGFP reporter fluorescence in data set [1] was 0.184 ± 0.0062; in data set [2] (ligand: 1 µM Pb), 1.13 ± 0.23; in data set [2] (ligand: 30 µM Zn) it was 2.31 ± 0.5.
Taken in the same sequence, the figures for MNIQIGELAKRTACPVVTIRFYEQEGLLPPPGRSRGNFRLYAEEHVERLQFIRHCRSLDMPLSDVRTLLSYRKRPDQDCGEVNMLLDEHIRQVESRIGALLELKHHLVELREACSGARPAQSCGILQGLSDCVCDTRGTTAHPSD [G42A] were 0.06212 ± 0.00026, 0.0737 ± 0.0021 and 0.482 ± 0.034.
In the case of MNIQIGELAKRTACPVVTIVFYEQEGLLPPPGRSRGNFRLYGEEHVERLQFIRHCRSLDMPLSDVRTLLSYRKRPDQDCGEVNMLLDEHIRQVESRIGALLELKHHLVELREACSGARPAQSCGILQGLSDCVCDTRGTTAHPSD [R20V], the sfGFP reporter fluorescence came out at 0.0623 ± 0.00052 in data set [1], 0.0618 ± 0.0023 in data set [2] (ligand: 1 µM Pb) and 0.0627 ± 0.0026 in data set [2] (ligand: 30 µM Zn).
As to MNIQIGELAKRTACPVVTIRFDEQEGLLPPPGRSRGNFRLYGEEHVERLQFIRHCRSLDMPLSDVRTLLSYRKRPDQDCGEVNMLLDEHIRQVESRIGALLELKHHLVELREACSGARPAQSCGILQGLSDCVCDTRGTTAHPSD [Y22D], the sfGFP reporter fluorescence amounted to 0.06066 ± 0.00026 in data set [1], 0.0618 ± 0.0018 in data set [2] (ligand: 1 µM Pb) and 0.06011 ± 0.00052 in data set [2] (ligand: 30 µM Zn).
Taken in the same sequence, the figures for MNIQIGELAKRTACPVVTIRFYEQEGLLPPPGRSRGNFRLYGEEHVERLQFIRHCRSLDMPLSDVRTLLSYRKRPDQDCGEVNMLLDEHIRQVESRIGALLELKHHLPELREACSGARPAQSCGILQGLSDCVCDTRGTTAHPSD [V108P] were 0.0572 ± 0.0015, 0.06011 ± 0.00052 and 0.0621 ± 0.0018.
As to MNIQIGELAKRTACPVVTIRFYEQEGLLPPPGRSRGNFRLYGEEHVERLQFIRHCRSLDMPLSDVRTLLSYRKRPDQDCGELNMLLDEHIRQVESRIGALLELKHHLVELREACSGARPAQSCGILQGLSDCVCDTRGTTAHPSD [V82L], the figures for the sfGFP reporter fluorescence in data set [1], in data set [2] (ligand: 1 µM Pb) and in data set [2] (ligand: 30 µM Zn) were 0.0574 ± 0.0034, 0.0583 ± 0.001 and 0.0724 ± 0.0044, respectively.
On to MNIQIGELAKRTACPVVTIRFYEQEGLLPPPGRSRGNFRLYGEEHVERLQFIRHCRSLDMPLSDVRTLLSYRKRPDADCGEVNMLLDEHIRQVESRIGALLELKHHLVELREACSGARPAQSCGILQGLSDCVCDTRGTTAHPSD [Q77A], for which the sfGFP reporter fluorescence came out at 0.0698 ± 0.0013 in data set [1], 0.128 ± 0.045 in data set [2] (ligand: 1 µM Pb) and 1.48 ± 0.31 in data set [2] (ligand: 30 µM Zn).
In the case of MNIQIGELAKRTACPVVTIRFYEQEGLLPPPGRSRGNFRLYGEEHVERLQFIRHCRSLDMPLSDVRTLLSYRKRPDQDCGEVNALLDEHIRQVESRIGALLELKHHLVELREACSGARPAQSCGILQGLSDCVCDTRGTTAHPSD [M84A], the figures for the sfGFP reporter fluorescence in data set [1], in data set [2] (ligand: 1 µM Pb) and in data set [2] (ligand: 30 µM Zn) were 0.0618 ± 0.0029, 0.0687 ± 0.0029 and 0.807 ± 0.02, respectively.
Consider MNIQIGELAKRTACPVVTIRFYEQEGLLPPPGRSRGNFRLYGEEHVERLQFIRHCRSLDSPLSDVRTLLSYRKRPDQDCGEVNMLLDEHIRQVESRIGALLELKHHLVELREACSGARPAQSCGILQGLSDCVCDTRGTTAHPSD [M60S], for which the sfGFP reporter fluorescence amounted to 0.0601 in data set [1], 0.0608 ± 0.001 in data set [2] (ligand: 1 µM Pb) and 0.0592 ± 0.00078 in data set [2] (ligand: 30 µM Zn).
